T1: B6C6 complex (KaiB-KaiC complex formed beforehand and isolated by SEC) (Synechococcus sp. PCC 7942, UniProt Q79PF5 1-102; Q79PF4 1-519, S431 substituted with an aspartate residue)
T1 construct: KaiB, Synechococcus sp; PCC 7942, as m2; KaiC, Synechococcus sp; PCC 7942, phosphorylation mimic with S431 replaced by aspartate, as m3; Oversaturating KaiA was added to this purified complex; the final molar ratio [KaiA]:[KaiB]:[KaiC] was 24:12:6; In the iCM-SANS sample both chains were 75%-deuterated; also called BC complex; B6C6 subcomplex; source: E. coli proteins, purified; KaiB and KaiC …
T1 sequence 1: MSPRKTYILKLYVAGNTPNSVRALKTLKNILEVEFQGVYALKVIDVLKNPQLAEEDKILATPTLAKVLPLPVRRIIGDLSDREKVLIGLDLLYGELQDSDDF
T1 sequence 2: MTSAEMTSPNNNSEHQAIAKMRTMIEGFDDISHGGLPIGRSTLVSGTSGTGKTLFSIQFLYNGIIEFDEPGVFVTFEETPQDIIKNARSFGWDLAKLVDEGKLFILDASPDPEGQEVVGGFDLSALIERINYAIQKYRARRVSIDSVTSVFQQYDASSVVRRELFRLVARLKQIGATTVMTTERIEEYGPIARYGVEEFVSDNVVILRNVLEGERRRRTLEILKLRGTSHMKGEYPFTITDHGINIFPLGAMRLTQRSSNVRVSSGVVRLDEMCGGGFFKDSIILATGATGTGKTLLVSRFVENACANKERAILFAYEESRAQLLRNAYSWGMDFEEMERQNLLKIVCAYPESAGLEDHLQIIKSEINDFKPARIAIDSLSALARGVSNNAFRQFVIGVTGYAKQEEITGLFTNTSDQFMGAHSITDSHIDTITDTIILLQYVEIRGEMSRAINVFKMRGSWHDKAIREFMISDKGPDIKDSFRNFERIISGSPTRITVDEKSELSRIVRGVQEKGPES

B1: phosphorylation mimic KaiC (S431 substituted with aspartate) from Synechococcus sp. PCC 7942 (natural protein)
chain: T1 sequence 2
notes: KaiC, Synechococcus sp; PCC 7942, phosphorylation mimic with S431 replaced by aspartate; A 75%-deuterated form (dC) was used in the iCM-SANS sample; Buffer contained 1 mM ATP and 5 mM MgCl2; also called C6 (homohexamer); hC; source: E. coli, purified as a Strep-tagged recombinant protein
B2: KaiB from Synechococcus sp. PCC 7942 (natural protein, UniProt Q79PF5 1-102, looked up)
chain: T1 sequence 1
notes: KaiB, Synechococcus sp; PCC 7942; A 75%-deuterated form (dB) was used in the iCM-SANS sample; also called B4 (homotetramer); hB; source: E. coli, purified after cleavage of the GST-tag
B3: KaiA from Synechococcus sp. PCC 7942 (natural protein)
chain: LSQIAICIWVESTAILQDCQRALSADRYQLQVCESGEMLLEYAQTHRDQIDCLILVAANPSFRAVVQQLCFEGVVVPAIVVGDRDSEDPDEPAKEQLYHSAELHLGIHQLEQLPYQVDAALAEFLRLAPVETMADHIMLMGANHDPELSSQQRDLAQRLQERLGYLGVYYKRDPDRFLRNLPAYESQKLHQAMQTSYREIVLSYFSPNSNLNQSIDNFVNMAFFADVPVTKVVEIHMELMDEFAKKLRVEGRSEDILLDYRLTLIDVIAHLCEMYRRSIPRET
notes: KaiA, Synechococcus sp; PCC 7942; Both N- and C-terminal domains were present in the sample, since the study locates the N-terminal domains, so it was probably whole KaiA; Hydrogenated in all samples; also called A2 (homodimer); hA (hydrogenated KaiA); source: E. coli, purified after cleavage of the his-tag

How the values were obtained:
[1] = target: the molecule itself; experiment: AUC; sedimentation velocity, Rayleigh interference optics, 60,000 rpm, 30 °C; ternary KaiA-KaiB-KaiC mixture 1.0 mg/mL (KaiA added in excess to SEC-purified B6C6, final 24:12:6); hydrogenated proteins in H2O buffer: 20 mM Tris-HCl pH 8.0, 150 mM NaCl, 5 mM MgCl2, 0.5 mM EDTA, 1 mM DTT, 1 mM ATP
[2] = target: B3; experiment: as above; settings: both partners purified
[3] = target: B1; experiment: SEC; KaiB and KaiC mixed 9:6 in 20 mM Tris-HCl pH 8.0, 150 mM NaCl, 5 mM MgCl2, 0.5 mM EDTA, 1 mM DTT, 1 mM ATP at 10 °C; complex isolated with SEC; settings: both partners purified
[4] = target: T1, B6C6 complex (KaiB-KaiC complex formed …); experiment: AUC; sedimentation velocity, Rayleigh interference optics, 60,000 rpm, 30 °C; ternary KaiA-KaiB-KaiC mixture 1.0 mg/mL (KaiA added in excess to SEC-purified B6C6, final 24:12:6); hydrogenated proteins in H2O buffer: 20 mM Tris-HCl pH 8.0, 150 mM NaCl, 5 mM MgCl2, 0.5 mM EDTA, 1 mM DTT, 1 mM ATP; settings: both partners purified
[5] = target: the molecule itself; experiment: AUC-SAXS; KaiA alone, 1.0 mg/mL, 25 °C; SV-AUC at 60,000 rpm with laboratory SAXS (NANOPIX); experimental profile compared with the crystal dimer and with simulated dimers

B1
stoichiometry N [1]: 6

B2
binding result [2]: binds
binding result [3]: binds

B3
stoichiometry N [4]: 12 KaiA protomers per B6C6 complex
stoichiometry N [5]: 2

From publication PMC8913699, “Overall structure of fully assembled cyanobacterial KaiABC circadian clock complex by an integrated experimental-computational approach” (Communications Biology, 2022)
